Source: article PMC2602759
Where “and” joins values, the source holds several entries; their conditions need not be identical. Equal values may be shown once.

How the values were obtained:
[1] = biological target: HIV-1 integrase (IN) (HIV-1); experiment: cross-linking
[2] = biological target: HIV-1 integrase (IN) (HIV-1); experiment: SEC

Substance: HIV-1 integrase (IN) (enzyme)
- stoichiometry N [1]: 2
- stoichiometry N [2]: 2 and 4
